# According to PMC8948278, “Antibody-dependent enhancement (ADE) of SARS-CoV-2 pseudoviral infection requires FcγRIIB and virus-antibody complex with bivalent interaction” (Communications Biology, 2022):
# B1: KIH format bivalent MW07 (MW07/KIH) (antibody, V domains shown)
# VH: EVQLVESGGGLVQPGGSLRLSCAASGFTFSSYWMSWVRQAPGKGLEWVANIKQDASEKYYLDSLKGRFTISRDNAKNSLYLQMNSLRAEDTAVYYCARDLGILWFGDYPWGQGTLVTVSS
# VL: DIQMTQSPSSLSASVGDRVTITCRASQGISNSLAWYQQKPGKAPKLLLYAASTLESGVPSRFSGSGSGTDFTLTISSLQPEDFATYYCQQFYSTPRTFGQGTKVEIK
# notes: also called knob-in-hole format bivalent mAb; copies: + + 2
# B2: KIH format bivalent MW05 (MW05/KIH) (antibody, V domains shown)
# VH: EVQLVQSGAEVKKPGSSVKVSCKASGGTFSSYAISWVRQAPGQGLEWMGRIIPIFGSSNYAQKFQGRVTITADESTSTAYMELSSLRSEDTAVYYCAESPLGGGSGYSVSWFDPWGQGTLVTVSS
# VL: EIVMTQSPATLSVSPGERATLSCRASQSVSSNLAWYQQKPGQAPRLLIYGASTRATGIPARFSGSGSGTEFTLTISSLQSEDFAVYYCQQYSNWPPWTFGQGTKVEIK
# notes: as for B1
# Target: Recombinant SARS-CoV-2 S trimer protein (ACRO Biosystems SPN-C52H9) (SARS-CoV-2, Wuhan-Hu-1 (reference spike), UniProt P0DTC2)
# Experiment: SPR
# Settings: both partners purified
row,Binder,koff [s⁻¹]
1,B1,3.02e-05
2,B2,8.52e-05
